Test results published in PMC4490510, “Cloning, Expression and Characterization of a Thermostable Esterase HydS14 from Actinomadura sp. Strain S14 in Pichia pastoris” (International Journal of Molecular Sciences, 2015).

Assays:
[1] = system: T1, CCCC(=O)Oc1ccc([N+](=O)[O-])cc1; assay: purified protein; format: biochemical, Actinomadura sp. S14; conditions: 50 mM Tris-HCl pH 8.0, 50 °C, 0.4% Triton X-100, 0.1% gum arabic
T1 construct: ORF 258 aa, 26,604 Da, no signal peptide; secreted from Pichia pastoris X33 via pPICZalphaA with 6xHis tag (predicted 29,117 Da, ~30 kDa SDS-PAGE), Ni-Sepharose purified, not N-glycosylated

[2] = system: T2, CC(=O)Oc1ccc([N+](=O)[O-])cc1; assay: purified protein; format: biochemical, Actinomadura sp. S14; conditions: 50 mM Tris-HCl pH 8.0, 50 °C, 0.4% Triton X-100, 0.1% gum arabic
T2 construct: ORF 258 aa, 26,604 Da, no signal peptide; secreted from Pichia pastoris X33 via pPICZalphaA with 6xHis tag (predicted 29,117 Da, ~30 kDa SDS-PAGE), Ni-Sepharose purified, not N-glycosylated

HydS14 (Actinomadura sp. S14)
Km [1]: 210 ± 20 µM
Vmax [1]: 37.1 µmol/min/mg
kcat [1]: 2.47 ± 0.07 s⁻¹
kcat/Km [1]: 11700 ± 780 M⁻¹ s⁻¹
Km [2]: 360 ± 10 µM
Vmax [2]: 35.3 µmol/min/mg
kcat [2]: 2.37 ± 0.06 s⁻¹
kcat/Km [2]: 6590 ± 40 M⁻¹ s⁻¹
